# From US20240010720A1 (IOMX THERAPEUTICS, published 2024)
# Changes are numbered by the printed parent chain.
# T1: recombinant human IGSF11 (VSIG3) extracellular domain (ECD) (human, UniProt Q5DX21 23-241, biotinylated where captured on streptavidin)
# T1 construct: also called biotinylated recombinant ECD-IGSF11; IGSF11 (ECD domain)
# T1 sequence: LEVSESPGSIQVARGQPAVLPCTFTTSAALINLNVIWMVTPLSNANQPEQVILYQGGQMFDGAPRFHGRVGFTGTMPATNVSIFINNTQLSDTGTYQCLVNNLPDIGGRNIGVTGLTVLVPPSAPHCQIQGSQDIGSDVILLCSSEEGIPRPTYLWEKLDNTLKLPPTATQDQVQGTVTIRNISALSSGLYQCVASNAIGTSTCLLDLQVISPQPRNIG
# T2: IGSF11 ECD fused to murine-Fc (human; mouse, UniProt Q5DX21 23-241)
# T2 construct: also called Fc-fusion IGSF11 ECD; full-length ECD of IGSF11; not shown: murine Fc
# T2 sequence: T1 sequence
# T3: murine IGSF11 on cells (mouse, UniProt P0C673 23-428)
# T3 construct: UniProt P0C673; also called MC38-IGSF11 (murine); CT26-IGSF11 (murine)
# T3 sequence: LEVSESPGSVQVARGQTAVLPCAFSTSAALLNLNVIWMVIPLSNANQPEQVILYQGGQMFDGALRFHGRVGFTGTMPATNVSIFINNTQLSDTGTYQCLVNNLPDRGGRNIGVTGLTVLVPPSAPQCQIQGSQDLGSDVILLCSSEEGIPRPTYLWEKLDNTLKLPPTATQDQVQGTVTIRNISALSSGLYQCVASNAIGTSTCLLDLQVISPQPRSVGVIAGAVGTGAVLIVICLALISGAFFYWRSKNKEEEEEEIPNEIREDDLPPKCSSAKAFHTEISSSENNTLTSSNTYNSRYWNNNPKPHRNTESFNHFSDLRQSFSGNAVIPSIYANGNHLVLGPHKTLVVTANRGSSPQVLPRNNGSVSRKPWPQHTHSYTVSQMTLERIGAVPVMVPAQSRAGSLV
# T4: human IGSF11 (VSIG3) on cells (human, UniProt Q5DX21 23-431)
# T4 sequence: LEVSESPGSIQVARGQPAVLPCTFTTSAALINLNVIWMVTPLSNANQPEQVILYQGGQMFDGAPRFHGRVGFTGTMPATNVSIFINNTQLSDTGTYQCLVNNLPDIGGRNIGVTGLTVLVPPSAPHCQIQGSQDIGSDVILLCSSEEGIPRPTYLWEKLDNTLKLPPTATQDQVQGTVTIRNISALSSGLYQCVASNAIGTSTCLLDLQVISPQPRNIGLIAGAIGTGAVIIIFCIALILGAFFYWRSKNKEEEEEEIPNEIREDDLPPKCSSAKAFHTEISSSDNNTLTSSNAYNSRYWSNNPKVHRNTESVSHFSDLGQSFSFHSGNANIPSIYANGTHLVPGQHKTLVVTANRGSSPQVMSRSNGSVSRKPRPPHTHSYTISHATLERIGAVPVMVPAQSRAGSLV
# T5: His-tagged extracellular domain (ECD) of human IGSF11 (VSIG3) (human, UniProt Q5DX21 23-241)
# T5 construct: partly bought (SinoBiological 13094-H08H); also called IGSF11-HIS; HIS-IGSF11; not shown: HIS6 tag
# T5 sequence: T1 sequence
# T6: recombinant murine IGSF11 extracellular domain (ECD) (mouse, UniProt P0C673 23-240, biotinylated)
# T6 construct: also called Mouse IGSF11; murine ECD-IGSF11
# T6 sequence: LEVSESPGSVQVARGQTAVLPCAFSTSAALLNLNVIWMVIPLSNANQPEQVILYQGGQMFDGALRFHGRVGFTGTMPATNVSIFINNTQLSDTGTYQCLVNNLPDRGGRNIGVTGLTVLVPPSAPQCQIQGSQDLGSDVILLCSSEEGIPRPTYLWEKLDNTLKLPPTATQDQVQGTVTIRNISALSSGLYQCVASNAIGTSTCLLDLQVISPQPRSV
# T7: recombinant cynomolgus monkey IGSF11 extracellular domain (ECD) (cynomolgus monkey, UniProt Q5DX21 23-241 (human entry), biotinylated)
# T7 chain: T1 sequence with P17T, I83V, A185T, S187T
# B1: C-007 (IgG1 format) (antibody, V domains shown)
# VH: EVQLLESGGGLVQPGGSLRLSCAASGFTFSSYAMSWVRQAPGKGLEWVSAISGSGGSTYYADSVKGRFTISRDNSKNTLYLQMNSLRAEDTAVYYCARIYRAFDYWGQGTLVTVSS
# VL: ASVLTQPPSVSAAPGQKVTISCSGSSSNIGNNYVSWYQQLPGTAPKLLIYDNNKRPSGIPDRFSGSKSGTSATLGITGLQAEDEADYYCQLYEEEHSTWVFGGGTKLTVL
# notes: wildtype human IgG1 and kappa or lambda constant regions
# B2: C-001 (IgG1 format) (antibody, V domains shown)
# VH: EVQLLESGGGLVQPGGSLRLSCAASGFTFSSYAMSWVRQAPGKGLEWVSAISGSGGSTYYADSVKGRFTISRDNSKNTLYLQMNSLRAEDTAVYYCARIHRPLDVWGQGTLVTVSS
# VL: B1 VL with Q90G, L91S, Y92W, E93L, H96R, T98Q, W99Y
# notes: wildtype human IgG1 and kappa or lambda constant regions; also called ABP C-001
# B3: C-005 (IgG1 format) (antibody, V domains shown)
# VH: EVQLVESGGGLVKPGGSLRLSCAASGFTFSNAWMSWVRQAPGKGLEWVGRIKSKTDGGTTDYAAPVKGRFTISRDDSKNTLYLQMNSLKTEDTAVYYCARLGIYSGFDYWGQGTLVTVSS
# VL: SYELTQPPSVSVSPGQTASITCSGDKLGDKYASWYQQKPGQSPVLVIYQDSKRPSGIPERFSGSNSGNTATLTISGTQAEDEADYYCHSYTGKPSQVVFGGGTKLTVL
# notes: as for B1
# B4: C-017 (IgG1 format) (antibody, V domains shown)
# VH: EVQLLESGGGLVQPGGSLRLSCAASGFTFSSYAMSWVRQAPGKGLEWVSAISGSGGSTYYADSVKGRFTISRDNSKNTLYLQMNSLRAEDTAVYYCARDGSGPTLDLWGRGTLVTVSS
# VL: DIQMTQSPSSLSASVGDRVTITCRASQSISSYLNWYQQKPGKAPKLLIYAASSLQSGVPSRFSGSGSGTDFTLTISSLQPEDFATYYCQQHRYIPPWTFGQGTKVEIK
# notes: as for B1
# B5: C-016 (IgG1 format) (antibody, V domains shown)
# VH: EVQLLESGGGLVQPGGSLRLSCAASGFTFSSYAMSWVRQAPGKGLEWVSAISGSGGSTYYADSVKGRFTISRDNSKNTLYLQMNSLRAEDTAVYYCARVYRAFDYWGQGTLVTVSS
# VL: B1 VL with Q90H, E93T, E95A, H96E, T98H
# notes: as for B1
# B6: B-008 (chain-swapped IgG1) (antibody, V domains shown)
# VH: EVQLVESGGGLIQPGGSLRLSCAASGFTVSSNYMSWVRQAPGKGLEWVSVIYSGGSTYYADSVKGRFTISRDNSKNTLYLQMNSLRAEDTAVYYCARGNPYYYGDLQVNFDYWGQGTLVTVSS
# VL: QAVVTQEPSLTVSPGGTVTPTCGSSTGAVTSGNLPNWFQQKPGQAPRALIYSTSNKHSWTPARISGSLLGGKAALTLSGVQPEDEAEYYCLLYYGGAWVFGGGTKLTVL
# notes: human IgG1 format; also called B8
# B7: C-004 (Fab format) (Fab, V domains shown)
# VH: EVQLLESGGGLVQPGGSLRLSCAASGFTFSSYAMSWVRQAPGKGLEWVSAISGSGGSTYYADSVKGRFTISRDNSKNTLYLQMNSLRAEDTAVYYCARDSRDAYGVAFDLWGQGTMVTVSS
# VL: B1 VL with Q90L, L91T, Y92W, E93T, E94G, E95A, H96G, S97R, T98I, W99F
# notes: Fab in E. coli lysate
# B8: C-019 (Fab format) (Fab, V domains shown)
# VH: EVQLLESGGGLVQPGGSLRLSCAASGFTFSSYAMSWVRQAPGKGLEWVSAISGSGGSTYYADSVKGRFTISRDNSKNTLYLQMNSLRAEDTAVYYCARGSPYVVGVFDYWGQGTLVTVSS
# VL: B4 VL with H91W, R92Q, Y93H, I94E, W97Y
# notes: Fab in E. coli lysate
# B9: C-018 (Fab format) (Fab, V domains shown)
# VH: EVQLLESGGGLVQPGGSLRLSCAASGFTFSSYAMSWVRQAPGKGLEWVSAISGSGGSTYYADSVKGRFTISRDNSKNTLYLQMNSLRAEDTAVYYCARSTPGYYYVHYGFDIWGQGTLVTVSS
# VL: B3 VL with H88Q, S89A, Y90W, T91S, G92T, K93S, P94T, S95H, Q96S, V97W
# notes: Fab in E. coli lysate
# B10: C-010 (Fab format) (Fab, V domains shown)
# VH: QVQLVQSGAEVKKPGSSVKVSCKASGGTFSSYAISWVRQAPGQGLEWMGGIIPIFGTANYAQKFQGRVTITADESTSTAYMELSSLRSEDTAVYYCARGYGEYYPAFDVWGQGTLVTVSS
# VL: B3 VL with H88A, T91A, G92H, K93T, P94H, Q96T, V97W
# notes: Fab in E. coli lysate
# B11: C-013 (Fab format) (Fab, V domains shown)
# VH: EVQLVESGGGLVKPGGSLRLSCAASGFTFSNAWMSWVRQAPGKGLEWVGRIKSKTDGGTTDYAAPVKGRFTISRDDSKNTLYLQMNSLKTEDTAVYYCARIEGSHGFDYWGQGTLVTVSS
# VL: B3 VL with H88A, T91L, G92H, K93T, S95K, V97F
# notes: Fab in E. coli lysate
# B12: C-027 (Fab format) (Fab, V domains shown)
# VH: QVQLVQSGAEVKKPGSSVKVSCKASGGTFSSYAISWVRQAPGQGLEWMGGIIPIFGTANYAQKFQGRVTITADESTSTAYMELSSLRSEDTAVYYCARENIPSYYDSSGRQDAFDIWGQGTMVTVSS
# VL: B3 VL with H88Q, T91L, G92H, P94S, S95H, Q96G, V97A
# notes: Fab in E. coli lysate
# B13: C-012 (Fab format) (Fab, V domains shown)
# VH: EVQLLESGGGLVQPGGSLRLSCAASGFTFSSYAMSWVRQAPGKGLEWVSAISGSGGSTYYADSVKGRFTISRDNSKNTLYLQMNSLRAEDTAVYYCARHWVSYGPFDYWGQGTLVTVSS
# VL: B4 VL with H91S, R92H, Y93Q, I94S, W97I
# notes: Fab in E. coli lysate
# Target: T1, recombinant human IGSF11 (VSIG3) …
# Test: BLI, apparent affinity, IgG captured, IGSF11 ECD 100 nM
# Text: Briefly, various APBs were loaded on an optical biosensor via a commercially available Capture System (AHC sensors, ForteBio).
row,Binder,Kd
1,B1,< 125 nM
2,B2,< 75 nM
3,B3,< 15 nM

# Target: T2, IGSF11 ECD fused to murine-Fc
# Test: ELISA, IgG
row,Binder,EC50
1,B1,< 1 nM
2,B2,< 1 nM
3,B4,1 to 20 nM
4,B3,< 1 nM

# Target: T3, murine IGSF11 on cells
# Test: FACS, MC38-IGSF11 cells, IgG
# Text: (§1) Unbound antibodies were removed by washing the cells three time with FACS buffer. Bound antibodies were detected with a mouse anti-human IgG antibody conjugated with AlexaFluor647.
row,Binder,EC50
1,B1,< 20 nM
2,B2,50 to 100 nM
3,B5,50 to 100 nM
4,B4,50 to 100 nM
5,B3,< 20 nM

# Target: T4, human IGSF11 (VSIG3) on cells
# Test: FACS, MDA-MB-231-IGSF11 cells, IgG
# Text: as §1
row,Binder,EC50
1,B1,< 10 nM
2,B2,< 10 nM
3,B4,15 to 25 nM
4,B3,< 10 nM

# Target: T3, murine IGSF11 on cells
# Test: FACS, CT26-IGSF11 cells, IgG
# Text: as §1
row,Binder,EC50
1,B1,20 to 50 nM
2,B2,20 to 50 nM
3,B5,20 to 50 nM
4,B4,20 to 50 nM
5,B3,< 20 nM

# Target: T5, His-tagged extracellular domain (ECD) …
# Test: blocking ELISA: antibody pre-incubated with His-tagged IGSF11 ECD, complexes added to immobilised VSIR-Fc; y axis % remaining IGSF11 binding to VSIR, x axis nM IgG per legend
row,Binder,IC50 (read off the curve)
1,B6,~4 nM

# Target: T6, recombinant murine IGSF11 extracellular …
# Test: ELISA, Fab
# Experimental: (§2) In order to identify IGSF11-specific binding ABPs, monoclonal Fabs expressed from E. coli were generated from the enriched set of anti-IGFS11 antibody-expressing phage. After bacterial lysis, the Fabs were tested for their binding properties and cross-reactivity profile on recombinant ECD-IGSF11 (human, mouse and cynomolgus monkey) by standard ELISA. Briefly, biotinylated recombinant ECD-IGSF11 from human, mouse, or cynomolgus monkey were immobilized at 2 ug/mL on a streptavidin-coated 384-well Maxisorp plate. The surface was blocked with 2% (w/v) skim milk powder in PBST. After three wash cycles with PBST, a bacterial lysate of each of the anti-IGSF11 Fabs in 2% (w/v) skim milk powder was applied to the immobilized IGSF11 and incubated for 1 h. After removing all unbound Fab by 3 wash cycles with PBST, bound Fab antibodies were detected with a goat anti-human Fab antibody conjugated with horseradish peroxidase. After three wash cycles with PBST the ELISA was developed with TMB substrate.
row,Binder,A450
1,B7,< 1
2,B8,< 1
3,B9,< 1
4,B10,< 1

# Target: T8, Streptavidin (UniProt P22629 37-163, limits assumed)
# T8 construct: also called negative antigen; irrelevant antigen
# T8 sequence (P22629 37-163 limits assumed): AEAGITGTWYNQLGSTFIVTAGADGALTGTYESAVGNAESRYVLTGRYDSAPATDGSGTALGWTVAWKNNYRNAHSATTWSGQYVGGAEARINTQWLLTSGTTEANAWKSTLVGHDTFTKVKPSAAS
# Test: ELISA, Fab
# Experimental: as §2
row,Binder,A450
1,B7,< 0.1
2,B8,< 0.1
3,B11,< 0.1
4,B9,< 0.1
5,B10,< 0.1
6,B12,< 0.1

# Target: T1, recombinant human IGSF11 (VSIG3) …
# Test: ELISA, Fab
# Experimental: as §2
row,Binder,A450
1,B7,< 1
2,B8,< 1
3,B11,< 1
4,B9,< 1
5,B12,< 1

# Target: T7, recombinant cynomolgus monkey IGSF11 …
# Test: ELISA, Fab
# Experimental: as §2
row,Binder,A450
1,B7,< 1
2,B13,< 1
3,B8,< 1
4,B9,< 1
5,B10,< 1
6,B12,< 1
